The values below come from patent US20070134248A1 (GENITOPE, published 2007).

The target of one assay is T1, 116.
T1 construct: immunogen of fusions 15, 16 and 18; coated in its fully human form; also called PIN116; PIN116 fully human Id protein (HV1-46 / LV2-8)
Put plainly: ELISA. The text has this:
(§1) Before specificity screening, all of the clonal immunogen-positive hybridoma supernatants were re-screened on the immunogen, a non-family member Id protein, and KLH, if animals were immunized with Id protein that has been conjugated KLH. As described above, this screen identifies HC-specific clones but not mAbs against the light chain constant region. Clones identified positive to the immunogen and KLH were […]. Those found positive to the immunogen but not to the non-family member Id protein or KLH were tittered on the immunogen. In addition to normalizing for different binding affinities and concentrations, each hybridoma supernatant was titered on the fully human form of the Id protein used as the immunogen(s) for the V regions. The titer or dilution resulting in an ELISA absorbance of 2.5 to 3 OD after 30 min. incubation time was then used. Hybridoma specificity was determined by screening against available Id proteins expressing the same HV and KV or LV as well as different HV, KV and LV. The final ELISA results are expressed as follows: 0 (<0.5 OD),1 (0.5-1.0 OD), or 4 (1-4 OD). Positive hybridoma supernatants are categorized according to specificity: anti-Id, anti-constant region (HC, KC or LC), or V region (HV, KV, LV family or family member).
(§2) In general, the fully human Id protein or proteins containing the immunogen V regions were coated onto 96-well ELISA plates at 2.5-5 ug/mL in carbonate buffer pH 9.6 and incubated at 4° C. for up to 14 days. On the day of the ELISA, plates were brought to RT and blocked with Tris-Tween-20, pH 7.6 for 15-60 min. at RT. Following a NaCl and Triton X-100 wash, diluted hybridoma cell culture supernatants were incubated overnight at 4° C. Hybridoma supernatant dilutions ranged from 1:2 to 1:25 and were prepared in PBS with 5% BSA. Plates were washed and incubated with HRP-conjugated goat anti-mouse IgG-specific detecting antibody. A chromogenic substrate (TMB) was used to measure the amount of mouse antibody bound to each well. The reaction was stopped at or before 30 minutes with IN H2SO4 and plates were read immediately. Absorbency readings at 450 nm ranging between 0-4 OD and using Molecular Devices plate reader and SOFTMAX PRO software.
In general terms: An ELISA detects its analyte on a solid surface through an enzyme-linked reagent.

A further assay has as its target T2, 647.
T2 construct: immunogen of fusion 17; also called PIN647; PIN647 fully human Id protein (HV3-48 / LV2-14)
Put plainly: ELISA.
From the text: as §1, §2

The next assay concerns the target T3, 662.
T3 construct: also called PIN662; PIN662 fully human Id protein (HV3-48 / LV2-8)
Put plainly: ELISA.
From the text: as §1, §2

Assay [1] has as its target T4, PIN574 fully human Id protein (HV4-39 / LV1-40) (human).
T4 construct: patient tumour-derived idiotype immunoglobulin used as antigen; fully human form; also called Immunogen (for 20H5); not shown: human immunoglobulin heavy chain constant region, isotype G3 (HCG3); human lambda light chain constant region (LC)
Put plainly: ELISA.
From the text: as §1, §2

Assay [2] addresses T5, PIN149 fully human Id protein (HV3-23 / KV4-1) (human).
T5 construct: patient tumour-derived idiotype immunoglobulin used as antigen; recombinant, two identical heavy and two identical light chains; also called Immunogen (for 3C9, 6C9, 10H7, 15E1); not shown: human immunoglobulin heavy chain constant region, isotype G3 (HCG3); human kappa light chain constant region (KC)
Put plainly: SPR (BIACORE 2000), mAb captured on anti-mouse surface, fully human Id protein as analyte, 25 C, single site model. As to the method: (§3) Binding constants were also determined for three of the sequenced clones (3C9, 10H7, and 20H5), as well as for two additional clones (6C9 and 15E1). The association and disassociation rates were measured by surface plasmon resonance using a BIACORE 2000 machine.
(§4) In addition, based on ELISA results, PIN185 was used as a positive control Id protein for 10H7 and 15E1 and a negative control Id protein for 3C9 and 6C9 and PIN149 was used as a non-binding Id protein for 20H5. Each mAb was captured onto an anti-mouse surface and tested for binding to the fully human Id protein. Following the mAb capture phase of the assay for the (@2 ug/ml), the fully human Id proteins were all diluted to a starting concentration of 250 nM and tested in a three fold dilution series. Each concentration was tested in duplicate. The running buffer contained PBS plus 0.005% tween-20 and 0.1 mg/ml BSA as a carrier. Binding data were collected at 25° C. […] The other data sets all fit well to a single site interaction model.

The target in another assay is T6, 628.
T6 construct: immunogen of fusions 20 and 21; also called PIN628; PIN628 fully human Id protein (HV3-7 / KV4-1)
T6 sequence (VH, as listed by the source, chain 1 of 2): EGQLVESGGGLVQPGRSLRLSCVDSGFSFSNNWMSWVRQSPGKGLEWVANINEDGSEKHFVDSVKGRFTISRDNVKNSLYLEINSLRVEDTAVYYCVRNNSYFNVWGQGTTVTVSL
T6 sequence (VL, as listed by the source, chain 2 of 2): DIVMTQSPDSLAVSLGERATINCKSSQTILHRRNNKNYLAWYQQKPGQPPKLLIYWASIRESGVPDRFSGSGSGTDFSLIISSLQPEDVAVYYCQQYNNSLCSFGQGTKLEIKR
Put plainly: ELISA.
From the text: as §1, §2

In assay [3] the target is T7, PIN185 fully human Id protein (human).
T7 construct: patient idiotype immunoglobulin used as control antigen
Put plainly: ELISA.
From the text: as §1, §2

For the next assay, the target named is T8, 913.
T8 construct: also called PIN913; PIN913 fully human Id protein (HV4-59 / KV4-1)
T8 sequence (heavy, as listed by the source): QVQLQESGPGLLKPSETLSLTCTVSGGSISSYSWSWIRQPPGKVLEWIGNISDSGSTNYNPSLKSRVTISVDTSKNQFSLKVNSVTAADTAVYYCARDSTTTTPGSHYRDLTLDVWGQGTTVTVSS
Put plainly: ELISA.
From the text: as §1, §2

Assay [4] deals with T7, PIN185 fully human Id protein. Put plainly: SPR (BIACORE 2000), mAb captured on anti-mouse surface, fully human Id protein as analyte, 25 C, single site model. As to the method:
as §3, §4

For assay [5], the target named is T5, PIN149 fully human Id protein (HV3-23 / …). Put plainly: ELISA.
From the text: as §1, §2

Assay [6] shares this target. Put plainly: SPR (BIACORE 2000), mAb captured on anti-mouse surface, fully human Id protein as analyte. As to the method: as §3, §4
For orientation: SPR reads the build-up and loss of mass on a sensor chip optically.

Assay [7] deals with T4, PIN574 fully human Id protein (HV4-39 / …). Put plainly: SPR (BIACORE 2000), mAb captured on anti-mouse surface, fully human Id protein as analyte, 25 C, single site model. As to the method:
as §3, §4

T4 sequence (VH, as listed by the source, chain 1 of 2): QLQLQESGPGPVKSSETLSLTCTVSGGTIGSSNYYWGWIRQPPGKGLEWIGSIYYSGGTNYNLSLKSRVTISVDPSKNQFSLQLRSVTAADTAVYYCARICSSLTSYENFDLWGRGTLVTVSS
T4 sequence (VL, as listed by the source, chain 2 of 2): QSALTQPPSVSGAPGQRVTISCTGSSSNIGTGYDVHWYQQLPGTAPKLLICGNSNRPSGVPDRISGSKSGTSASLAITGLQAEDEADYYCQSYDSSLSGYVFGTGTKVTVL
T5 sequence (VH, as listed by the source, chain 1 of 2): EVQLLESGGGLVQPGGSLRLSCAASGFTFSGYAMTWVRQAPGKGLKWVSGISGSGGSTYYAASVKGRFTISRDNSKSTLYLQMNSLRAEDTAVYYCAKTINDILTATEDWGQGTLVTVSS
T5 sequence (VL, as listed by the source, chain 2 of 2): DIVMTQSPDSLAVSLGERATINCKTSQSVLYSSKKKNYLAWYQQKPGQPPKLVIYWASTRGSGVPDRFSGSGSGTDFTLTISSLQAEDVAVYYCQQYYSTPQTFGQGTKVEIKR
T1 sequence (VH, as listed by the source, chain 1 of 2): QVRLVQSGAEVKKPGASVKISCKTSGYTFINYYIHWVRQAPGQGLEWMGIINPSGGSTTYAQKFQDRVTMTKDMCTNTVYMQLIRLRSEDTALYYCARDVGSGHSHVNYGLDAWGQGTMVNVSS
T1 sequence (V domain, as listed by the source, chain 2 of 2): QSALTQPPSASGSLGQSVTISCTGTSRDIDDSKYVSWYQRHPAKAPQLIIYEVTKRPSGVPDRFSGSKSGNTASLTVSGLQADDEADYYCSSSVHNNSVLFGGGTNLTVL
T3 sequence (heavy, as listed by the source): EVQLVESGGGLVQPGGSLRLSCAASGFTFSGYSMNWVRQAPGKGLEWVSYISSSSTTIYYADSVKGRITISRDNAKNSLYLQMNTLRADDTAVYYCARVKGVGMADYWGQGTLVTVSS
T2 sequence (VH, as listed by the source, chain 1 of 2): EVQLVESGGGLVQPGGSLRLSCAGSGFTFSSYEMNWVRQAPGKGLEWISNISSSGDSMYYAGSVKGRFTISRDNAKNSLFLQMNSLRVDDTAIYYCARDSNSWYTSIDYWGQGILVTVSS
T2 sequence (VL, as listed by the source, chain 2 of 2): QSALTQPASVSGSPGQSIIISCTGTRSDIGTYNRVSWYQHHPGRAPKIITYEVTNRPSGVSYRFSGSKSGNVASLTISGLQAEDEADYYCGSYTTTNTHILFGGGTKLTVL

B1: mAb clone 15E8 (antibody, V domains shown)
VH: QVQLQQPGAELVMPGASVKMSCKASGYTFTDYWMHWVKQRPGQGLEWIGTIDTSDSYTNYNQKFKGKATLTVDESSSTAYMQLSSLTSEDSAVYYCVRWKKYGNYFFDYWGQGTTLTVSS
VL: DIVMTQSHKFMSTSVGDRVSITCKASQDVNTAVAWYQQKPGQSPKLLIYWASTRHTGVPDRFTGSGSGTDFSLTISSVQAEDLGLYYCQQCYSTPYAFGGGTKLEIKR
notes: mouse hybridoma mAb from fusion 16 (immunogen unconjugated fully human PIN116)
For B1, the ELISA score with 116 and with 662 was 4 each time. Moreover, the binding result (with 647; in assay [1]) was “no binding” throughout.

B2: mAb clone 3C9 (antibody, V domains shown)
VH: EVQLQQSGPELEKPGASVKISCKASGYSFTAYNMNWVKQNNGKSLEWIGNIDPYHGGTNYNQKFKGKATLTVDKSSSTAYMQLKSLTSEDYAVYYCARGGGDWSWFAYWGQGTLVTVSA
VL: DIVMTQSHKFMSTSVGDRVSITCKASQDVNTAVAWYQQKPGQSPKVLIYWASNRHTGVPDRFTGSGSGTDYTLTISSMQAEDLALYYCHQHYSTPWTFGGGTKLEIER
Turning to B2, in assay [2], the equilibrium dissociation constant (Kd) – broadly, the equilibrium constant for the complex coming apart – was 1.78 nM; the koff (in general, a measure of how fast the partners let go of each other) worked out at 0.000134 s⁻¹; the on-rate constant (kon) (in general, a measure of how fast the partners come together) was found to be 74900 M⁻¹ s⁻¹.

B3: mAb clone 4H11 (antibody, V domains shown)
VH: EVKLVESGGGLVKPGGSLKLSCAASGFAFSNYDMSWVRQTPEKRLEWVATIRSDDSYTYYPDSVKGRFTISRDNARNTLYLQMSSLRSEDTAFYYCARREGNYAMDYWGQGTSVTVSS
VL: DIQMTQSPASLSVSVGETVTITCRASENIYSYLAWYQQKKGKSPQLLVYAATNLGDGVPTRFSGSGSGTQYSLKINSLQSEDFGSYYCQHFWGNPLTFGAGTKLELKR
notes: mouse hybridoma mAb
Consider B3, for which, in the assay with 116, the binding result is reported as “no binding”. Also, the ELISA score (with 662; in assay [1]) was 4 throughout.

B4: mAb clone 12C3 (antibody, V domains shown)
VH: EVKLVESGGGLVQPGGSLSLSCAASGFTYTDYYMNWVRQPPGKALEWLALIRNKANGYTTEYSASLKGRFTISRDNSQSILYLQMNALRAEDSATYYCVRENINYYFDYWGQGTTLTVSS
VL: DIVLTQSPASLAVSLGQRATISCRASESVEYFGASLMQWYQQKSGQPPKLLIRAATNVESGVPARFSGSGSGTDFSLNIHPVEEDDIAMYFCQQSRKVPWTFGGGTKLEIKR
notes: mouse hybridoma mAb from fusions 20/21 (PIN628 V regions as immunogen)
B4: the ELISA score (with 628; in [3]; with 913) was 4 throughout.

B5: mAb clone 10H7 (antibody, V domains shown)
VH: EVQLVESGGGLVKPGGSLKLSCTASGFTFSSYAMSWVRQSPEKRLEWVAEISSGGIHTYYSDTVTGRFSISRDNAKNSTLYLEMNSLRSEDTAIYYCARETTGTWGQGTLVTVSA
VL: QIVLTQSPAIMSASPGEKVTMTCSVSSSITYMHWFRQKPGTSPKLWIYTTSNLASGVPARFSGSGSGTSYSLTISRMEAEDAATYYCQQRSRYPFTFGSGTKLEIKR
notes: mouse hybridoma mAb from fusion 14 (immunogen PIN149 chimera-KLH)
For B5, the Kd in assay [4] was 3 nM; in [2], 0.83 nM. In addition, the off-rate (koff) in [4] is 9.9e-05 s⁻¹; in assay [2], 3.8e-05 s⁻¹. For the same molecule, the kon in assay [4] turned out to be 33200 M⁻¹ s⁻¹; in assay [2], 45400 M⁻¹ s⁻¹. Further, the ELISA score (in the assay with 628; in [3]; in assay [5]; with 913) was 4 in each case.

B6: mAb clone 20H5 (antibody, V domains shown)
VH: QVQLKESGPDLVAPSQSLSITCTVSGFSLTSYGVHWVRQPPGKGLEWLVVIWSDGSTTNNSPLKSRLSISKDNSKSQVFLKMNSLQTDDTAMYYCARHWGTTVVDAMDYWGQGTSVTVSS
VL: DIQMTQTTSSLSASLGDRVIISCRASQDIRNYLNWYQQKPDGTVKLLIYYTSQLHSGVPSRFSGSGSGTDYSLTINNLSEQEDIATYFCQQYDTLPWTFGGGTKLEIKR
notes: mouse hybridoma mAb from fusion 10 (immunogen fully human PIN574 Id protein)
With B6, in assay [6], the binding result was “no binding”. In [7], this molecule displayed an equilibrium dissociation constant (Kd) of 1.92 nM, a koff of 0.000146 s⁻¹ and a kon of 75900 M⁻¹ s⁻¹.
